The term stoichiometry N denotes a count of units in the complex or per binding partner.

The results in this text go back to PMC8291048.

In this assay the target is PKM2, endogenous in T24 cells (human (endogenous in T24)) (UniProt P14618). The assay can be described thus: cross-linking; T24 cells (LV-DPYSL2, siDPYSL2 or negative control) lysed in 0.5% Triton X-100 sodium phosphate buffer pH 7.3; supernatant treated with 1% formaldehyde for 30 min; Western blot for PKM2 monomer, dimer and tetramer.

“PKM2, endogenous in T24 cells (from UniProt P14618 1-531) (enzyme; other documents disagree on this pair)” yielded a stoichiometry N of 2.
